The values that follow come from patent publication US20190359683A1.

For this test, the target named is recombinant human cardiotrophin-like cytokine factor 1 (CLCF1) (human) (UniProt Q9UBD9). In words: yeast display binding.
Chain of recombinant human cardiotrophin-like cytokine factor 1 (CLCF1) (human) (Q9UBD9 28-225): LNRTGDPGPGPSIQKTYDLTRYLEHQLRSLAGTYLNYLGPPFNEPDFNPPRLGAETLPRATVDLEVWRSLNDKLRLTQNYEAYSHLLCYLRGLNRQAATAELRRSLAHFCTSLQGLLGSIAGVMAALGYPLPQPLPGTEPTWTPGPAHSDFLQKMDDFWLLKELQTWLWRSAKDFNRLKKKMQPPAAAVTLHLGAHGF

The term Kd denotes the constant that tells how readily two partners part at equilibrium. “yeast-displayed eCNTFR (variant 4 with Y177H and K178N) (from UniProt P26992 20-342)”: the Kd came out at 0.014 nM.
